Experimental data from the DeepSol protein solubility set.

Experiment: soluble on expression in E. coli; label from the status in PepcDB or PDB records

Row | Sequence | soluble on expression in E. coli
1 | MGSDKIHHHHHHMHVIVKNRYTQEIIHFFLENCRTESLRRSSIYAADFLYGKDQGFFIELRERISNYLDRNVDRISIEIASETGKPFKYIREEILQTIREIKSIRIPEDLHEFVKPGVSALNYNCNDPVLSLFVPLFATILQGSPVLVFANPYNFVSAHIIISMLSEIGLPEGVVNVIPFKPNFNYAYLYGENFSYFQDTYDGLGINRIIQSERHKPATVLWGDIDPDSAVSEFTKRLVRMPFSNEQLLVVDRRMFEYVLNRLKEELSRIVVGDPADGATDLGPVTKDEDLMEALSIVGKYRVERLLAMFRGVEGNLMKPAIILTDDVVKDPFVHAPLVYLVNSASVEDAVNLINEVEADRCALFSDDSKLLKMLYGRTACKEISFNSYMYKDYLFKPFLVKRKILM | not soluble
2 | MSLTEPDSKPKKGRAGRKKAEPVRPPEQFLELAELLDYVGQVIARGVPGGVWVRAEIASLTDRRHLYLDLVQAGEGGAGGVGEVAKCRATVWARERFALEAKFRGATSGATLSAGLKVLLFGTAEFHPQYGFSFNVLDISPEYTLGDAALRLEAMRAELVAEGSYGLNRLLPVPTDFARVAVIAPREAAGLGDFRREADPLEAAGLVEFHYLEATFQGREAGASLLRAVAAARELHQEKALDALFVIRGGGAVTDLAWLNDLELARALATFPAPVVTGLGHARDDTLPDEVACLRTDTPSKAAAYLVRTVVNAAAQAQEAARTIRAEAARVLVEAEAAAAWARDRALSSAVRRVDAAAAEVDALMRQALGLTPQRTLARGYALVRDAAGQPVTRAAGARAGEPLTLEWSDGSVEGHHHHHH | soluble
3 | GMDMKKHGLSIGINRIESVFFVTLKAIGTLTHEDYLVITPMLEGALSQVDQPKVSLFLDATELDGWDLRAAWDDLKLGLKHKSEFERVAILGNKDWQEWAAKIGSWFIAGEIKYFEDEDDALKWLRY | soluble
4 | MQKVHVQYIDGETDQMLRQDDLDGYTDETIPYSTAEGIKKFEGDGYELFKDNFPAGEKFDNDDTNDQFYTVIFKHHRENVDPNHSSADGTKGTKTLTETVHYKYANGTKAAEDQTAQVTFTRNGVLDDVTGIVAWGKWNEASQSYKALTSPTIAGYAPSEAVVKRSSNSDAEQGPTLTVIYTADA | soluble
5 | MDNLETDRLILINYTLEMIQATINGTEALEKTSGYHVSPDWPGIDFFFYLPYVLENVKKDDKMIKWTRLVVLKTENKIIGEIGGQGNPDETGEIEIGYSIVPDYQNKGYMSEALISMIDWLEHQPVINRIFARCYEQNEASIQVLKHNHFVHIKEKDTEEKQGRVMMWEYPIKQT | not soluble
6 | SKPSKPFNVDDVLKFTFTGEKHHHHHH | soluble
7 | MSKLLYLVAVDGGEWGERAADRAIHLAEKTHAKVKLVTVIDWPYIHPMIIEGAAAPLLDKEAEEMTVKAKVITPLVEKYNTLSLNITTELLWGDPAVILKEQVEVTNADMIFVGRQGRSSVVDTLFGSVANKLAHSVSVPIVLVP | not soluble
8 | MAGMHFLVGISTENYVILAADKATFAYGAILADSENDKEYRLGKKLTMMCIGEEGDVAQFGDWTKRNLQLYSVRNGYEVSPSCAHHFVRRSIAEGLRSQDHYTVDVLIGGYDDKEDKAFLGSVDYLANGLGQQPYLFRGFCGRFCYAIMDREYKKDMTEAEGLALMNKCIGEAKRRFVANIPGYKVVIIDKKGYRKLDDVLF | soluble
9 | MTHLFALSELPLDEIHRLLDEAEAFRSGRIWRPAAPMYVANLFFEPSTRTKCSFEMAERKLGLHVIPFDPERSSVQKGETLYDTVRTLEAIGVDAVVIRHHEDAYFEALRHAVGIPIINAGDGCGHHPTQSLLDLLTIRQEFGAFTGLTVAIIGDIRHSRVARSNAEVLTRLGANVLFSGPAEWKDETNPYGTYVEVDEAIARADVVMLLRIQHERHAETMGLTKEEYHARYGLTLERARRMKSGAIILHPAPVNRGVEIASELVEAKASRIFKQMENGVYVRMAVLKRAMEGRMEHGRMAEKWHVVQ | soluble
10 | MGSDKIHHHHHHGQYIKKETVNSQVYAVIYAEGLAGSAQWVSGFKMMKNDATIRHQVSRGNGGNPIVNDRIPMRFIIAPTDVANVTWMQAEGAGDGNGNLNADFRSTAATGCRSYKIAGDPNRKWRVPTQRELQLMWLFREPVGVIYPAAQMENVSSKIYWAATEEDAANAWYFDFKQGVPQCSWQLKTTSSNVRCVSDY | not soluble
11 | GPGSMSHSALAYAACPMCTRVVHMGQMLHHILSTHKEQDPAYWMRLCNARLALYERVTGAPLEGTETMRDACLAQATAAVAEAADSEAMVPGGLSLSTPLSTHDALRPFLPTVSETGTYTCNWCALRSVAFSSRDAFLLHVAKDHPKLDFDVVESLVPQPLTVSSRAARNEGTGTPAPRAPAAESDVTVSDSWTRQQRGGAGCVGAASNSHAAEGFDVAYPVRRMPGVRTVQDTNVVTVKPEVHQLGTSVGRVGRNAFDPAPISTGGRRSRAAVSASSTASATAVANDLHFDKDCFPCELCFRVFVSELNLLQHLESKHTNPTTLASVSDASVERAAPPGTASASSTAAASPSSVEVFVVCDRCTDRKKVFRSSSALFSHIRFRHPAEDAAYETERMIEEQRQSRVFQCPHCRYRHPDMTRLDTHMRDAHGVVGCAGEKTIRGGRVVSGTAQPHGSAELKTAQPSLFSALPPVTVRTRFWCSVCEKGFANASALYAHTESKHTTIASLYPCPACKREFRDVPSLESHVQLCHKNLSLKDMGLQSSVECPDCLRHFLNYESLHDHAVRHHGKSAIAPVRSFVTPVSASTAGEGVGVAAAVPVPGTSTDASGSTTSPLAVAAPPKPRKVTRRKKEPSTAATES | not soluble
12 | MAGDPMIPVKNDPIDTRLAEMHEELRDLRNFPDSEFVGIIRELGFKCELCARCCTREFNDHVFLLDSDLERVRSIDPDAVTPAPYYEFCDQNGRFYVSGYALKTKPDGSCIFLENKRCRIYESRPSICRVYPHMLHREADETGKVDWRQISGLNEHGSYHSDLDDPACKEIALETRAYEEAYLQQVIGFFEAVKAHFRTNGLKHIQRTYDRKMREFLKGECDLEIFVYCKGGFEKQKLAKESERLEHHHHHH | soluble
13 | MGSDKIHHHHHHMIEHFNPWWKGREGIEEDEDYRKWIGSEVRWVPEVIKKISLEPFSLNIIFGPRQVGKTTLLKLIVKKLLDEGKNPRSIFYLRCDYISDYKELMNVIDEYLEIKETEGIKSSYILLDEVTFPKEWFRAIKLYIDMGKFRNDVLILTGSTSMYTKGEVETFPGRRGKGKDAVMLPLTFREFIKIASPKLHSVLPRINSLNKVEECLKAIPFIEELNSLFKLYLISGGFPRAVKDLLKHNKVSEETYETYISWMRGDILKLGKSEEVARRIMKTIIKKLPSPVSWHGIAKEIDIGSHKTVFSYIELFERMFLIRVLPYIDPDKLEADFKREKKVHLIDPFLYHLVSRWTLTEEPSEDKIVESVVATHVARRYEVGYWRDGREIDVVTREGVGIEVKWSDNVKVSPVKVGKIRKVITLSKSKFSRDPLVIPVSVFLSCI | not soluble
14 | MTTLRTLMAVSLVLNLAACGFKLRGQVSELPFERVYITAPAGLTIGSDLERVISTHTRAKVVNKAEKSEAIIQIVHAIREKRILSLSESGRVREFELVYRVAARLLDAHNAELASLQEIRLTRILPFLDAQELAKAAEEEMLYKDMQKDAVQQILRQVSAVTSAGLEHHHHHH | not soluble
15 | MNAITPTPGIDKEAFDRAANAVRRLCGWHIFPIIEETITLDSPGDSLLVLPTKHLVEIINVTIDGTTYPLSDFRSSPDGLLVKRHGRFPRGIAMVTVTMKHGYEKPTEILGVINDMARRANESNLTQLNVGGISVGATNSATPQSSEWRIVDELRLGPLP | not soluble
16 | MGSDKIHHHHHHMNVLASKDFRTEKRPLPFECIALVLQGGGALGAYQAGVYEALAEADIHPDWVAGVSIGAINSAIIAGNEPTERVPKLRAFWREISANPLLDWAAASPALAPTGTLPRLLFNQFSAACALVAGAPGFFSLRQPVPWLQADGSLEGTSFYETKHLKSTLERLVDFDRINAGRMRFSVGAVNVRSGNFVYFDNDQHTIRPEHVMASGSLPPGFPAVEIDGEFYWDGGLISNTPLQWVVEHGARQDTLAFQVDLWSARGEFPRNLSEVATRQKEIQYASRSRAHTDQFKQYQRARHTLASLLSKLPPELLDSEEATALSSIADHKVYKLVHLTYRSKQHEGHSKDHEFSRLSMEEHWRAGYFDAVRTLRHPEALLRPDNLEGVSTYDLAEDGRE | not soluble
